According to article PMC10234869:

B1: Frey regulator of sperm-oocyte fusion 1 with C-terminal 3xFLAG tag (Frey1-3xFLAG), wild type [murine] / Signal Peptide Peptidase-like 2c, C-terminally myc-tagged (SPPL2c-myc) [murine] (parent)
chain 1: MVLAMLGALYPRAGLSLFLFYLILAGALLRPQPQRSQQSVPEEFSAPLELLQPLSGLVDDYGLRPKHPRPGGPRPLLSQAQQRKRDGPNMADYYYDVNL
chain 2: EYGLVRVVSKNWSKDYCVLYSSDYVNLPRDLHHAPLLSLHDGTKTPWCPDEDSFHQAQDSSPRQRPLHQTTTMVTRGNCSFYAKGWLAQDQGAQGLLIVSRARNQQCSDTISKPQDPSKPWPALTIPVAVLRYTDMLDIVSHTYGDTDVRVAMFAPLEPVTDYNMAIIFILAVGTVAAGGYWAGLMEANKLQRRQAQRGGGLGGHNQQQTVAAERSQRAWEDDDFEDAPMDFTPAMTGAVVTMSCSIMILLYFFYDCFVYVMIGIFSLGASTGLYSCLAPILCHLPLWRYQWVLPGQRVSVTWPLLLLAGLCAMVTVLWVIHRNEDHWAWLLQDTLGVAYCLFVLRRVRLPTFKNCTLFLLALLAFDVFFVFITPLFTKTGESIMVEVASGPADSSSHERLPMVLKVPRLSFSALTLCNQPFSILGFGDIVVPGFLVAYCHRFDMQVQSRQVYYMACTVAYAVGLLVTFVAMILMQMGQPALLYLVSSTLLTSLAVATCRQEFTLFWTGQGRAKIPAEPVAQPCIASAVGSKMKLEDAKDSRTTNRFEQAVDGESGDLESSTGDDMAEMVTLSEDEATSPEGHSESSEGWSDTNLDPNELPSGSPMALEAMLIPLIQPIPHPSELGHIRTQSRVHDSSLPWMGLHKRKGLKVKKSMSAQAPL

Variants of: B1
Assay: co-immunoprecipitation (anti-FLAG IP, Western blot quantification)
Conditions: with Signal Peptide Peptidase-like 2c, transiently transfected HEK cells, n = 6, parent: 100, read off a plot

percent of parent (% of Frey1 Wt)	Variant
17	chain 1 P11L G14L S16T G26A

Variants of: B1
Assay: competition co-immunoprecipitation pulling on Frey1 (anti-FLAG IP, Western blot quantification)
Conditions: with Signal Peptide Peptidase-like 2c, co-expression of HA-HO-1 as competitor, value is relative to the same Frey1 variant without HA-HO-1 (EV = 100), transiently transfected HEK cells, n = 3, parent: 100, read off a plot

co-precipitated SPPL2c, percent of no-competitor control	Variant
59 % of EV	chain 1 P11L G14L S16T G26A
